From patent publication US20250236657A1 (TOSOH, published 2025) come the findings set out here.

Assay [1] concerns the target T1, AAV2 (wild type), serotype 2 AAV with capsid region VP1 of SEQ ID NO: 99 (adeno-associated virus serotype 2 (AAV2), UniProt P03135 1-735).
T1 construct: Recombinant AAV2 vector particles (EGFP genome) in filtered cell lysate; the capsid is assembled from VP1, VP2 and VP3
The assay is described as follows: affinity HPLC, AVR11a immobilization gel, linear pH gradient 6.0 to 2.0, AAV2 peak top.

The target of assay [2] is T2, AAV2 S267T (adeno-associated virus serotype 2 (AAV2), UniProt P03135 1-735).
T2 construct: Recombinant AAV2 vector particles in filtered cell lysate
Described as above.

Assay [3] has as its target T3, AAV2 S267A (adeno-associated virus serotype 2 (AAV2), UniProt P03135 1-735).
T3 construct: Recombinant AAV2 vector particles in filtered cell lysate
The description is as above.

Assay [4] addresses T4, AAV2 R471A (adeno-associated virus serotype 2 (AAV2), UniProt P03135 1-735).
T4 construct: Recombinant AAV2 vector particles in filtered cell lysate
Described as above.

For assay [5], the target named is T5, AAV2 S264A (adeno-associated virus serotype 2 (AAV2), UniProt P03135 1-735).
T5 construct: Recombinant AAV2 vector particles in filtered cell lysate
The assay is described as above.

Assay [6] concerns the target T6, AAV2 E499A (adeno-associated virus serotype 2 (AAV2), UniProt P03135 1-735).
T6 construct: Recombinant AAV2 vector particles in filtered cell lysate
The description is as above.

Assay [7] addresses T7, AAV2 Q263A (adeno-associated virus serotype 2 (AAV2), UniProt P03135 1-735).
T7 construct: Recombinant AAV2 vector particles in filtered cell lysate
The assay is described as above.

Assay [8] addresses T8, AAV2 T503S (adeno-associated virus serotype 2 (AAV2), UniProt P03135 1-735).
T8 construct: Recombinant AAV2 vector particles in filtered cell lysate
Described as above.

For assay [9], the target named is T9, AAV2 S384A (adeno-associated virus serotype 2 (AAV2), UniProt P03135 1-735).
T9 construct: Recombinant AAV2 vector particles in filtered cell lysate
The description is as above.

Assay [10] deals with T10, AAV2 D529E (adeno-associated virus serotype 2 (AAV2), UniProt P03135 1-735).
T10 construct: Recombinant AAV2 vector particles in filtered cell lysate
The assay is described as above.

The target in assay [11] is T11, AAV2 Q385A (adeno-associated virus serotype 2 (AAV2), UniProt P03135 1-735).
T11 construct: Recombinant AAV2 vector particles in filtered cell lysate
The description is as above.

Assay [12] addresses T12, AAV2 N382A (adeno-associated virus serotype 2 (AAV2), UniProt P03135 1-735).
T12 construct: Recombinant AAV2 vector particles in filtered cell lysate
Described as above.

Assay [13] addresses T13, AAV2 D528A (adeno-associated virus serotype 2 (AAV2), UniProt P03135 1-735).
T13 construct: Recombinant AAV2 vector particles in filtered cell lysate
Described as above.

Assay [14] has as its target T14, AAV2 H271A (adeno-associated virus serotype 2 (AAV2), UniProt P03135 1-735).
T14 construct: Recombinant AAV2 vector particles in filtered cell lysate
The assay is described as follows: affinity HPLC on AVR11a column, pH gradient 6.0 to 2.0; no elution peak, not adsorbed and passed through.

Assay [15] has as its target T15, AAV2 H271Q (adeno-associated virus serotype 2 (AAV2), UniProt P03135 1-735).
T15 construct: Recombinant AAV2 vector particles in filtered cell lysate
The assay is described as above.

Assay [16] deals with T16, AAV2 H271T (adeno-associated virus serotype 2 (AAV2), UniProt P03135 1-735).
T16 construct: Recombinant AAV2 vector particles in filtered cell lysate
Described as above.

Assay [17] concerns the target T17, AAV2 G383A (adeno-associated virus serotype 2 (AAV2), UniProt P03135 1-735).
T17 construct: Recombinant AAV2 vector particles in filtered cell lysate
The assay is described as above.

Assay [18] addresses T18, AAV2 H271F (adeno-associated virus serotype 2 (AAV2), UniProt P03135 1-735).
T18 construct: Recombinant AAV2 vector particles in filtered cell lysate
The assay is described as above.

Assay [19] has as its target T19, AAV2 D529A (adeno-associated virus serotype 2 (AAV2), UniProt P03135 1-735).
T19 construct: Recombinant AAV2 vector particles in filtered cell lysate
Described as above.

B1: AAV-binding protein AVR11a with cysteine tag (SEQ ID NO: 100), immobilised as AVR11a immobilization gel (receptor)
chain: MGSAGESDQITLPKNEVQLNVYVLQEPPKGETSTYDWQLITHPRDYSGEMEGEHSQILKLSNLTPGLYEFKAVVEGQNAHSEGYVNVTVEPEPRKNRPPIAIVSPQFQEISLPTTSTVIDGSQSTDDDKIVQYHWEELKGPLREEKISEDTAILKLSKLVPGNYTFRLTVVDSDGATDSTTANLTVNKAVDHHHHHHCRNDTCG
modifications: immobilised on a TOYOPEARL carrier with iodoacetamide groups; cysteine tag sequence serving as immobilization tag at positions 220-226
notes: KIAA0319L PKD1 and PKD2 with 11 substitutions (AVR10s plus Ala330Val); also called AVR11a column
B1: the “AVR11a column elution time” value in [1] came out at 59.8 min; in assay [2], 59.2 min; in [3], 59.4 min; in assay [4], 60.3 min; in [5], 59.6 min; in [6], 59.3 min. Besides, the “AVR11a column elution time” value in [7] stood at 60.2 min; in [8], 55.2 min; in assay [9], 58.6 min; in [10] it was 54.5 min; in assay [11] it was 57.7 min; in assay [12], 53.5 min. The “AVR11a column elution time” value in assay [13] was determined as 55.5 min. Moreover, the binding result in assay [14], in [15], in [16], in assay [17], in assay [18] and in [19] was “no binding” in each case.
